From patent US12582683B2, “Prostate neoantigens and their uses” (Jansen Biotech, Inc., priority 2019, dated 2026)

B1: VFFKRAAEGFFRMNKLKESSDTNPKPYCMAAPMGLTENNRNRKKSYRETNLKAVSWPLNHT [P76] (peptide, listed as Homo sapiens)
chain: VFFKRAAEGFFRMNKLKESSDTNPKPYCMAAPMGLTENNRNRKKSYRETNLKAVSWPLNHT
notes: AR-V3
B2: WTPIPVLTRWPLPHPPPWRRATSCRMARSSPSATSGSSVRRRCSSLPSWVWNLAASTRPRSTPS (peptide, listed as Homo sapiens)
chain: WTPIPVLTRWPLPHPPPWRRATSCRMARSSPSATSGSSVRRRCSSLPSWVWNLAASTRPRSTPS
notes: TMEM222-LOC644961

Key:
CD8+ and CD4+ T cells = experiment: Endogenous autologous normal donor restimulation assay (Ad5-transduced dendritic cells plus autologous Pan-T cells); type: cell-based, human; conditions: Table 27, restimulation with overlapping 15-mer peptide pools, highest frequency across sixteen normal donors
Method: (5% CO2). The following day, DC cells were counted and plated in a 96 well round bottom microplate at a concentration of 30,000 viable cells per well. […] (5% CO2). […] Autologous CD3+ Pan-T cells isolated from human normal PBMCs were thawed using media.
Plates were incubated at 37° C. […] (5% CO2).
The cells were washed with PBS and stained with Live/Dead Fixable Aqua Dead Cell stain (Thermo-Fisher).

[1] = tested on: CD8+ T cells in PBMCs from patients with metastatic castrate-resistant prostate cancer; experiment: Patient PBMC restimulation assay (in vitro immunogenicity of neoantigens); type: cell-based, human; design: Maximum frequency of TNFα+IFNγ+CD8+ T cells: unit not given here; conditions: for Maximum fold change over: fold change over negative control, highest across the PBMC donors evaluated, 9 mer peptide; for Maximum frequency of TNFα+IFNγ+CD8+ T cells: greatest frequency among all tested PBMC donors, negative control 0.011-0.8
Method: In Vitro Immunogenicity Assessment of Neoantigens (“Patient PBMC Restimulation Assay”)
PBMCs from human patients with metastatic castrate-resistant prostate cancer were thawed using media (RPMI 1640 supplemented with Glutamax, 10% HI FBS, and 1× Sodium Pyruvate). Cells were counted and plated in a 96 well round bottom microplate at a concentration of 250,000 viable cells per well. Lyophilized peptides were solubilized in 100% DMSO and diluted in media to 10 μg/mL. Neoantigen peptides were added in equal volume to PBMCs for a final concentration of 5 μg/mL. CEF Peptide Pool “Plus” (Cellular Technologies, Ltd.) was utilized as a positive control and DMSO at the same final concentration as the experimental peptides was utilized as a negative control. Human IL-15 (Peprotech) was added to all wells at final concentration of 10 ng/mL.
Plates were incubated at 37° C. (5% CO2) for a total of 13 days. Media was refreshed every 2 days with IL-15 (10 ng/mL final concentration) and IL-2 (R&D systems, 10 IU/mL final concentration). On day 12, PBMCs were re-stimulated with identical experimental peptides or controls, at same concentration as peptide stimulation on Day 1. After 1-hour incubation, protein Inhibitor Cocktail (eBioscience) was added to every well and plate was incubated overnight.
On day 13, cells were stained for intracellular flow cytometry analysis. The cells were washed with PBS and stained with Live/Dead Fixable Aqua Dead Cell stain (Thermo-Fisher). Following the live/dead stain, cells were blocked using Biotin-Free Fe Receptor Blocker (Accurate Chemical & Scientific Corp). Extracellular cellular flow panel (1 μL/antibody per well in 50 μL) consisted of CD3 PerCP-Cy5.5 (Biolegend), CD4 BV421 (Biolegend), and CD8 APC-Cy7 (Biolegend). After extracellular staining, cells were fixed using Foxp3/Transcription Factor Staining Buffer Set (eBioscience) and stained for intracellular proteins (1:50 dilution) using TNFα FITC (R&D Systems) and IFNγ BV785 (Biolegend). Cells were washed and resuspended in stain buffer and analyzed using a BD Celesta flow cytometer.
Flow cytometry cell staining analysis was completed using FlowJo v10. Cells were gated on live, singlet, CD3+ cells. The CD8+ T cells were analyzed for TNFα/IFNγ expression and the frequency of double positive TNFα/IFNγ CD8+ T cells was recorded. Responses were assessed to be positive when the frequency of double positive TNFα/IFNγ CD8+ T cells due to stimulation with an experimental peptide was increased greater than or equal to 2-fold over the DMSO only negative control for that patient. Peptides were analyzed in 1 to 7 patient samples.
The 9 mer fragments shown in Table 13 were assessed for their ability to activate T cells using the Patient PBMC restimulation assay described in Example 1 using TNFα and IFNγ production by CD8^+ T cells as a readout. Self-antigens shown in Table 15 were also used in the assays. […] PBMCs from ten patients were evaluated.

HLA-A*01:01 = HLA-A*01:01 (Homo sapiens, UniProt P04439, A114D/A174V/A182V/D101N/D185E/E176A/E190D/L180R/Q94H/R68K/S129P/T187R/V100A/V91M/W191G); experiment: In vitro binding of neoantigens to class I MHC (UV peptide exchange, HLA class I ELISA); conditions: 100% = same binding affinity as positive control peptide
Method: (§1) In Vitro Binding of Neoantigens to Class I MHC
(§2) The 9 mer peptides identified by bioinformatics analysis were analyzed for their binding propensities to 6 common HLA class I alleles (HLA-A*01:01, A*02:01, A*03:01, A*24:02, B*07:02, B*08:01). The principle of the method is briefly described below and consists of two parts, one involving exchange of peptide with a positive control induced by Ultraviolet (UV) radiation, and the second is an enzyme immunoassay to detect stable HLA-peptide and empty HLA complexes.
(§3) HLA-bound peptides are critical for the stability of the HLA complex.
(§4) The exchange efficiency between the peptide of interest and Pos was analyzed using an HLA class I ELISA. The combined technologies allowed the identification of ligands for an HLA molecule of interest which are potentially immunogenic.
(§5) The UV control represented UV-irradiation of conditional HLA class I complex in the absence of a rescue peptide. […] To this end streptavidin was bound onto polystyrene microtiter wells. After washing and blocking, HLA complex present in exchange reaction mixtures or ELISA controls was captured by the streptavidin on the microtiter plate via its biotinylated heavy chain. Non-bound material was removed by washing. Subsequently, horseradish peroxidase (HRP)-conjugated antibody to human B2M was added. […] In the latter case B2M was removed during the washing step. After removal of non-bound HRP conjugate by washing, a substrate solution was added to the wells. A coloured product formed in proportion to the amount of intact HLA complex present in the samples. After the reaction was terminated by the addition of a stop solution, absorbance was measured in a microtiter plate reader. […] Suboptimal HLA binding of peptides with a moderate to low affinity for HLA class I molecules can also be detected by this ELISA technique (Rodenko, B et al. (2006) Nature Protocols 1: 1120-32).
(§6) Binding of select neoepitopes to HLA-A*01:01, HLA-A* 02:01, HLA-A* 03:01, HLA-A*24:02, HLA-1B*07:02 and HLA-1B*08:01 was evaluated using the assay described in Example 1. […] As a criterion for further evaluation, peptides with an exchange rate of at least 10% with the corresponding Pos peptide for at least one of the 6 HLA alleles that we considered for further evaluation. […] Higher percentages correspond to stronger binding to the HLA allele.

HLA-A*24:02 = HLA-A*24:02 (Homo sapiens, UniProt P04439, D101N/D140Y/D185E/E176V/E190D/F33S/G103R/G107R/I119L/I121M/I306V/K335N/L105A/L180Q/L300P/N151K/N90K/Q86E/Q94H/R106L/R138H/R89G/T104I/T345S/V100E/W191G/Y123F); experiment: as above; conditions: 100% = same binding affinity as positive control peptide
Method: as §1, §2, §3, §4, §5, §6

HLA-A*02:01 = HLA-A*02:01 (Homo sapiens, UniProt P04439, D140Y/D185E/D98H/E176V/E277Q/G131W/G231S/I119V/I121R/I166T/I218V/L300P/L318F/N151K/N90K/P208A/P217A/Q86G/Q94H/R138H/R169H/T345S); experiment: as above; conditions: 100% = same binding affinity as positive control peptide
Method: as §1, §2, §3, §4, §5, §6

HLA-B*07:02 = HLA-B*07:02 (Homo sapiens, UniProt P01889); experiment: as above; conditions: 100% = same binding affinity as positive control peptide
Method: as §1, §2, §3, §4, §5, §6

HLA-A*03:01 = HLA-A*03:01 (Homo sapiens, UniProt P04439); experiment: as above; conditions: 100% = same binding affinity as positive control peptide
Method: as §1, §2, §3, §4, §5, §6

| Molecule | Maximum Frequency of TNFα/IFNγ Double Positive CD4+30 T cells (CD8+ and CD4+ T cells) | Maximum fold change over [1] | Maximum frequency of TNFα+IFNγ+CD8+ T cells [1] | Exchange rate with Pos peptide, HLA-A*01:01 (HLA-A*01:01) | Exchange rate with Pos peptide, HLA-A*24:02 (HLA-A*24:02) | Exchange rate with Pos peptide, HLA-A*02:01 (HLA-A*02:01) | Exchange rate with Pos peptide, HLA-B*07:02 (HLA-B*07:02) | Exchange rate with Pos peptide, HLA-A*03:01 (HLA-A*03:01) | Immunogenic ([1]; patient PBMC restimulation, CD8+ T cells) |
| --- | --- | --- | --- | --- | --- | --- | --- | --- | --- |
| WKFEMSYTVGGPPPHVHARPRHWKTDR (listed as Homo sapiens) [AS18, splice variant NWD1] | 0.046 |  |  |  |  |  |  |  |  |
| DGHSYTSKVNCLLLQDGFHGCVSITGAAGRRNLSIFLFLMLCKLEFHAC (listed as Homo sapiens) [AS55, splice variant SPOCK1] | 0.063 |  |  |  |  |  |  |  |  |
| VQPIARELYQFTFDLLI (listed as Homo sapiens) [Neoantigen P48, AR.p.H875Y] |  | 2.33 | 0.220 | 4.3% | 0.1% | 99.3% | 12.8% | 4.4% |  |
| YEAGMTLGEKFRVGNCKHLKMTRP (listed as Homo sapiens) [Neoantigen P82, AR-V7] |  | 3.46 | 0.970 | 1.5% | −0.1% | 6.3% | 12.9% | 58.1% |  |
| YEAGMTLGGKILFFLFLLLPLSPFSLIF (listed as Homo sapiens) [Neoantigen P87, AR-Intron] | 0.079 | 3.24 | 0.120 | 1.1% | 0.2% | 64% | 5% | 2.4% |  |
| PKSEVRAKCKFSILNAK (listed as Homo sapiens) [Neoantigen P56, SPOP (F102C)] |  | 11.57 | 1.620 | 2.6% | 0.5% | 8.4% | 82.5% | 6.8% |  |
| B1 |  | 2.30 | 0.170 | 0.1% | −0.5% | 85.9% | 91.5% | 6% | Yes |
| B2 |  | 5.00 | 0.480 | 5.2% | 0.1% | 8.2% | 91.3% | 4.1% |  |
